Source: patent US20260043020A1, “BINDING MEMBERS WITH ALTERED DIVERSITY SCAFFOLD DOMAINS” (priority 2016, published 2026)

Target: rat TFR (rat) (UniProt Q99376)
Assay: cell-based or functional assay

% transcytosis after 6 h (in vitro rat BBB model): 0.2%
Substance: OX26-Fab
